Reference: article PMC2104711
Values belong to the binder of their own block, whether it stands above or below them.

Assays:
Details in all cases: remark: other sources report otherwise
[1] = biological target: T1, human XLF (1–233) with N-terminal His6 tag (XLF410) (human), Q9H9Q4; experiment: cross-linking
T1 chain: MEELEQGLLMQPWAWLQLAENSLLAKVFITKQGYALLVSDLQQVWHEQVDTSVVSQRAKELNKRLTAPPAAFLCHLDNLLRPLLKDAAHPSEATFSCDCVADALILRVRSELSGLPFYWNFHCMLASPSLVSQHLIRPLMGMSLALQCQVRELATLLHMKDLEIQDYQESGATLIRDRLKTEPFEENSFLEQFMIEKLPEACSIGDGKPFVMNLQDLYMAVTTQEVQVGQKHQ

[2] = biological target: T2, human XLF/Cernunnos (1–233), tag-free (cleaved XLF441) (human), Q9H9Q4; experiment: dynamic light scattering
T2 chain: T1 chain

[3] = biological target: T3, SeMet-substituted human XLF (1–233) (SeMet-XLF441, cleaved) (human), Q9H9Q4; experiment: crystal structure
T3 chain: T1 chain

stoichiometry N [1]: 2
B1: human XLF (1–233) with N-terminal His6 tag (XLF410), Q9H9Q4 1-233 (domain or fragment)
chain: T1 chain

stoichiometry N [2]: 2
B2: human XLF/Cernunnos (1–233), tag-free (cleaved XLF441), Q9H9Q4 1-233 (domain or fragment)
chain: T1 chain

stoichiometry N [3]: 2
B3: SeMet-substituted human XLF (1–233) (SeMet-XLF441, cleaved), Q9H9Q4 1-233 (domain or fragment)
chain: T1 chain
modifications: here or on the partner: selenomethionine-substituted (SeMet in place of methionine); selenomethionine-substituted (SeMet in place of methionine)
